Source: PMC9157410

Molecular target: recombinant TpiA (triosephosphate isomerase of Streptococcus pneumoniae D39) (S. pneumoniae D39) (UniProt P66943)
Assay: SPR; Biacore X100; rTpiA amine-coupled on a CM5 chip; plasminogen, laminin and BSA injected at 3.125 to 50 nM, contact time 120 s, 20 µL/min; 100 mM HEPES pH 7.4, 150 mM NaCl, 3 mM EDTA, 0.005% surfactant P20; apparent constants

Chain of UniProt P66943 (P66943 2-252): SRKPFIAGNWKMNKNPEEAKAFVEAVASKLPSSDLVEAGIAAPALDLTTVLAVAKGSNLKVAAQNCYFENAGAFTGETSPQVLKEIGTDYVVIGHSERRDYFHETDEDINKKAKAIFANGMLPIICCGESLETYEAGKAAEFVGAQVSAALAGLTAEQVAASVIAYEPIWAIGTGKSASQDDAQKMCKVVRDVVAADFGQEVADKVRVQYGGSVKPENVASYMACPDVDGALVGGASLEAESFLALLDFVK

## plasminogen from human plasma (natural protein)
  Kd: 411 nM
  koff: 0.00553 s⁻¹
  kon: 13400 M⁻¹ s⁻¹
